Source: paper PMC3726526, “Structural and Functional Characterization of the Recombinant Death Domain from Death-Associated Protein Kinase” (PLoS ONE, 2013)

B1: GB1-DAPk-DD(S) (domain or fragment, human, UniProt P53355 1293-1399, looked up)
chain: QASLGMDIHASDLNLLTRRKLSRLLDPPDPLGKDWCLLAMNLGLPDLVAKYNTSNGAPKDFLPSPLHALLREWTTYPESTVGTLMSKLRELGRRDAADFLLKASSVF
notes: death domain region of human death-associated protein kinase (DAPk, DAPK1), residues 1293-1399; Cloned between BamHI and XhoI of plasmid GEV2; all experiments were done with the intact GB1 fusion (thrombin not used); Predicted monomer mass 19.6 kDa; By the primers the XhoI site should add Leu-Glu before the His6 tag (surmised); also called short GB1-DAPk-DD construct; full-length DAPk-DD (short …)
B2: GB1-DAPk-DD(L) (domain or fragment, human, UniProt P53355 1293-1408, looked up)
chain: QASLGMDIHASDLNLLTRRKLSRLLDPPDPLGKDWCLLAMNLGLPDLVAKYNTSNGAPKDFLPSPLHALLREWTTYPESTVGTLMSKLRELGRRDAADFLLKASSVFKINLDGNGQ
notes: death domain region of human death-associated protein kinase (DAPk, DAPK1) with a nine-residue C-terminal extension from the Ser-rich tail, residues 1293-1408; Made by mutagenesis of a GEV vector holding residues 1293-1431; intact GB1 fusion in all experiments; Predicted monomer mass 20.6 kDa; also called long GB1-DAPk-DD construct; full-length DAPk-DD (long variant); source: E. coli BL21 codon …

Biological target: T1, GST-ERK2 (extracellular-regulated kinase-2) (human, UniProt P28482 1-360)
T1 construct: full length human ERK2 in pGEX-6-P3, N-terminal GST with a PreScission protease site; The methods and results of the ITC say 'ERK2'; the discussion says that the ITC and CD were done with GST-ERK2; source: E. coli BL21 codon plus; in cell lysate, held on glutathione beads (pull-down); large scale production as previously described [25]; (ITC); not shown: GST, N-terminal, kept
T1 sequence (P28482 whole entry): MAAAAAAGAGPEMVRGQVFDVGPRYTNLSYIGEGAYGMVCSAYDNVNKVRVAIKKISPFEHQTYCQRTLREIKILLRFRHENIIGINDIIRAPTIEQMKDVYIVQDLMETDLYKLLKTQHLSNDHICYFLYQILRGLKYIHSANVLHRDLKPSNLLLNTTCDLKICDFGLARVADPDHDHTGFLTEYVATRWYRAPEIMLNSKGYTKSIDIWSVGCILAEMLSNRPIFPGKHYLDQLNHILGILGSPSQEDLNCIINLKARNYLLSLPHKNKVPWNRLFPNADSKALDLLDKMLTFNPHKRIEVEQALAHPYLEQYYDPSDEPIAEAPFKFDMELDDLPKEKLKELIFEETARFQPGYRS
Test: ITC; VP-ITC, 25 C; 19 injections of 15 ul of 159 uM GB1-DAPk-DD(L) or 250 uM GB1-DAPk-DD(S) into 1.45 ml of 8.85-18.6 uM ERK2; 50 mM HEPES pH 7.5, 50 mM NaCl, 1 mM TCEP, 1 mM EDTA
Conditions: both partners purified

| Binder | Kd | dH | stoichiometry N |
| --- | --- | --- | --- |
| B1 | 1770 nM | -12.7 kcal/mol | 0.97 ± 0.01 |
| B2 | 920 nM | -9.18 kcal/mol | 1.03 ± 0.01 |
